Assay results published in IntAct's records for PubMed 29892012.

Tests used:
dpyl2_human DPYSL2 = dpyl2_human DPYSL2 (UniProt Q16555)
cryaa_human CRYAA = molecular target: T1, cryaa_human CRYAA (UniProt P02489)
T1 sequence: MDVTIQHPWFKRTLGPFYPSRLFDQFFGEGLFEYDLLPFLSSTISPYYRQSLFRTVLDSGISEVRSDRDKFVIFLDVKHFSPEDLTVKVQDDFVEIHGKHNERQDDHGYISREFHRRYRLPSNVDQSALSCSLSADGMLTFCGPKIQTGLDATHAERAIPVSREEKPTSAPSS

dcor_human ODC1 = molecular target: T2, dcor_human ODC1 (UniProt P11926)
T2 sequence: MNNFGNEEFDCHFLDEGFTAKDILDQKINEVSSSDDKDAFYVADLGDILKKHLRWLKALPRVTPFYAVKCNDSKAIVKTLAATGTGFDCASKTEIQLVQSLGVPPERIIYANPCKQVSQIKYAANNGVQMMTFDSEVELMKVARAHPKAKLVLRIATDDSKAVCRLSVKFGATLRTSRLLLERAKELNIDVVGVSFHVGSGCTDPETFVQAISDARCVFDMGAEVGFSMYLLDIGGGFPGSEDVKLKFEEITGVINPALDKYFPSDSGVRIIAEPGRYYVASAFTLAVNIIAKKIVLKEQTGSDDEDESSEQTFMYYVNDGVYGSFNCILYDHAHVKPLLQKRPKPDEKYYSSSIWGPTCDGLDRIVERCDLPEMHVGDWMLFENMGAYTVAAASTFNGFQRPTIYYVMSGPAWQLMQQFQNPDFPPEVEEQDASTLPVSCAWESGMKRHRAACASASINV

goga2_human GOLGA2 = molecular target: T3, goga2_human GOLGA2 (UniProt Q08379)
T3 sequence: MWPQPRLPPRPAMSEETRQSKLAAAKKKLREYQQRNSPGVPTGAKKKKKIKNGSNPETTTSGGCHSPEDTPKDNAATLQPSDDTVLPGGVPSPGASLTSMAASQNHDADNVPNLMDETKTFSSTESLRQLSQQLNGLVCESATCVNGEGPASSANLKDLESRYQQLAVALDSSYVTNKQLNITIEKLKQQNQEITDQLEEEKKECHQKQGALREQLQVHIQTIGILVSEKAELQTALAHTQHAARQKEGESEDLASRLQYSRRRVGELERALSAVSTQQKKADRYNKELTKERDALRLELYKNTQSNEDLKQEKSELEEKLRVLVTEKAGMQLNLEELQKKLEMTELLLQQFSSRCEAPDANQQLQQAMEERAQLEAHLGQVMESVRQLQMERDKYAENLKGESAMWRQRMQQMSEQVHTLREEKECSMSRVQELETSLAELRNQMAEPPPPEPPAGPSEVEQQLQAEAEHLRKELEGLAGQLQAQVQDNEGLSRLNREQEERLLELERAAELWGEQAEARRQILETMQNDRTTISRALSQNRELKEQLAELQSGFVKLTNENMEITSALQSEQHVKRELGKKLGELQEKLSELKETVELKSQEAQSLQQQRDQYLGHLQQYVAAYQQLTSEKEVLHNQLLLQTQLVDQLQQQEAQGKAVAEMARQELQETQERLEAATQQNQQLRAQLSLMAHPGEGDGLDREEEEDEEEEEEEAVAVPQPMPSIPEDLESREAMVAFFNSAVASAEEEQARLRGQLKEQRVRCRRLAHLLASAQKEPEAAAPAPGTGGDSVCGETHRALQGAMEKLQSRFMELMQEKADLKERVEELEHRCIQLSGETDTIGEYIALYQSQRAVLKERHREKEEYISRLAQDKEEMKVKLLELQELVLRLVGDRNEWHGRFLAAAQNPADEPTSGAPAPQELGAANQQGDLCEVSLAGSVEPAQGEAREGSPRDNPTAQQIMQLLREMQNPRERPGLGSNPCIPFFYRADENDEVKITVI

traf4_human TRAF4 = molecular target: T4, traf4_human TRAF4 (UniProt Q9BUZ4)
T4 sequence: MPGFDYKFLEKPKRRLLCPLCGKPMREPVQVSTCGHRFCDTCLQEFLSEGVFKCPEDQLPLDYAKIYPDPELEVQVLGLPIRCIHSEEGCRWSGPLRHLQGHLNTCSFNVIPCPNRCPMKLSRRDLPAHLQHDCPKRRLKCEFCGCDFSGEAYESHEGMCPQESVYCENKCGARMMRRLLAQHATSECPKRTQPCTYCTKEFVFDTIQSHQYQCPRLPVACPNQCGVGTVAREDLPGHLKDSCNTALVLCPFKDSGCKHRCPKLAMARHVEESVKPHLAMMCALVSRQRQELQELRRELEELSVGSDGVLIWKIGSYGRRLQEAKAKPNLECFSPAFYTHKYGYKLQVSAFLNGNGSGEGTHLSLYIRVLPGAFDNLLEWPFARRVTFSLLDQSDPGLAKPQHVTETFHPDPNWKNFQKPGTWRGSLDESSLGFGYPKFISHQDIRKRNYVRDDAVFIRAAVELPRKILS

ca094_human C1orf94 = molecular target: T5, ca094_human C1orf94 (UniProt Q6P1W5)
T5 sequence: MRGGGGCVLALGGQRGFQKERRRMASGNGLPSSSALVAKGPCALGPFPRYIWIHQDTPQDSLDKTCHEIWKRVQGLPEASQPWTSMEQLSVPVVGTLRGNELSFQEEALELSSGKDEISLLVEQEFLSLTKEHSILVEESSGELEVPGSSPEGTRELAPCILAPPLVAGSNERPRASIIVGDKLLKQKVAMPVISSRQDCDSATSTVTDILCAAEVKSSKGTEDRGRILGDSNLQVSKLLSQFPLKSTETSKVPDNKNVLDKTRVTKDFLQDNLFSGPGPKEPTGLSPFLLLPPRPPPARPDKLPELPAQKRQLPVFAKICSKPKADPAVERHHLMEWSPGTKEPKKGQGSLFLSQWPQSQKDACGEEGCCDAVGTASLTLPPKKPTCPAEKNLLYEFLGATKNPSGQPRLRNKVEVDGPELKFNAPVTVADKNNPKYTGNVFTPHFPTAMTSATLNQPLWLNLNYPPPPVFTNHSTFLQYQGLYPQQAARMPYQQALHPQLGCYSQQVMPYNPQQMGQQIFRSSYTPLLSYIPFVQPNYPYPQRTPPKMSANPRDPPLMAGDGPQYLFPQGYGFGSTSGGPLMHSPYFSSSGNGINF

## Golgi reassembly-stacking protein 2 (Homo sapiens) (from UniProt Q9H8Y8) L320R
dpyl2_human DPYSL2
  effect of a mutation on the interaction: with no effect
cryaa_human CRYAA
  effect of a mutation on the interaction: with no effect
dcor_human ODC1
  effect of a mutation on the interaction: disrupting interaction strength
goga2_human GOLGA2
  effect of a mutation on the interaction: with no effect
traf4_human TRAF4
  effect of a mutation on the interaction: with no effect
ca094_human C1orf94
  effect of a mutation on the interaction: with no effect
